Source: paper PMC3935999, “Post-Translational Modifications Modulate Ligand Recognition by the Third PDZ Domain of the MAGUK Protein PSD-95” (PLoS ONE, 2014)
One block for each molecule: values may come before it.

Assays:
[1] = biological target: KKETAV hexapeptide (optimised consensus C-terminal ligand of PSD-95 PDZ3); assay: ITC (MicroCal ITC-200); conditions: pH 7.5, 25 °C, no added salt stated (50 mM potassium phosphate only)
[2] = biological target: KKETAV hexapeptide (optimised consensus C-terminal ligand of PSD-95 PDZ3); assay: ITC (quoted from ref. 19, Saro et al. 2007); conditions: pH 6.0, 25 °C, 10 mM NaCl, 20 mM MES; cited from earlier work
CRIPT (Homo sapiens) [3] = assay: ITC; conditions: cited from earlier work
KKETAV peptide = assay: ITC; conditions: cited from earlier work
CRIPT (Homo sapiens) [4] = assay: ITC; conditions: cited from earlier work; remark: listed apart in the source
CRIPT (Homo sapiens) [5] = assay: ITC; conditions: cited from earlier work; remark: listed apart in the source
[6] = biological target: T1, PDZ3 domain of PSD-95 (wild type, residues 302-403) (UniProt P31016 302-403); assay: ITC; KKETAV (900 µM; 3 mM for D332P-PDZ3) injected into the protein in the cell (70 µM; 200 µM for D332P-PDZ3); 25°C; 50 mM potassium phosphate pH 7.5; single set of identical sites model; conditions: both partners purified
T1 construct: Postsynaptic density protein-95 (PSD-95; SAP-90; DLG-4), third PDZ domain with the α3 helix, residues 302-403 of the full PSD-95 protein; PDB 1BE9 is a longer construct of the same domain; 15N-labelled for NMR; also called PSD-95-PDZ3; WT-PDZ3; source: E. coli BL21/DE3, purified

[7] = biological target: T2, Δ10ct-PDZ3 (PSD-95 residues 302-393, without the α3 helix) (UniProt P31016 302-393); assay: as above; conditions: both partners purified
T2 construct: PSD-95 third PDZ domain truncated of its ten C-terminal residues (α3 helix), residues 302-393 of the full PSD-95 protein; 15N-labelled for NMR; source: E. coli BL21/DE3, purified
T2 sequence (P31016 302-393, stated change not applied): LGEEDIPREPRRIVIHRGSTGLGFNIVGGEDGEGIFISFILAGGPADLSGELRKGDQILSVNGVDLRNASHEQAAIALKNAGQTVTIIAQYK

T1 sequence (P31016 302-403): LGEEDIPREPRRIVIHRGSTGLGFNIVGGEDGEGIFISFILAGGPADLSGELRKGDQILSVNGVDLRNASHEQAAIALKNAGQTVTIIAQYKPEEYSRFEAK

ΔG [1]: -8 kcal/mol
Molecule: PSD-95 (DLG4/SAP-90) third PDZ domain, PDZ3, wild type
Kd [2]: 450 nM
ΔG [2]: -8.7 kcal/mol

Molecule: PSD-95 PDZ3 (from UniProt P78352)
Kd (CRIPT (Homo sapiens) [3]): 14 µM
Kd (KKETAV peptide): 450 nM
Kd (CRIPT (Homo sapiens) [4]): 1000 nM
Kd (CRIPT (Homo sapiens) [5]): 3.6 µM

stoichiometry N [6]: 0.99
Kd [7]: 3.6 µM
dH [7]: -8.8 kcal/mol
stoichiometry N [7]: 0.9
B1: KKETAV hexapeptide (peptide)
peptide: KKETAV
notes: residues numbered from 0 (C-terminal Val) to -5 (N-terminal Lys); also called KKETAV ligand; consensus hexapeptide; source: bought: Peptide 2.0 (USA)
